Source: patent US20250248992A1, “INNATE IMMUNE-ACTIVATING DRUG AND USE THEREOF” (LUODA BIOPHARMA (SUZHOU) CO., LTD., priority 2021, published 2025)

System: OVA-specific antibodies in serum
Test: Immune adjuvant activity with ovalbumin (OVA), serum antibody ELISA
Type: in vivo, mice
Settings: OVA alone, intramuscular, Day 0, 7, 14, serum Day 21

B1: ovalbumin (protein, UniProt P01012 2-386, looked up)
Ovalbumin: GSIGAASMEFCFDVFKELKVHHANENIFYCPIAIMSALAMVYLGAKDSTRTQINKVVRFDKLPGFGDSIEAQCGTSVNVHSSLRDILNQITKPNDVYSFSLASRLYAEERYPILPEYLQCVKELYRGGLEPINFQTAADQARELINSWVESQTNGIIRNVLQPSSVDSQTAMVLVNAIVFKGLWEKAFKDEDTQAMPFRVTEQESKPVQMMYQIGLFRVASMASEKMKILELPFASGTMSMLVLLPDEVSGLEQLESIINFEKLTEWTSSNVMEERKIKVYLPRMKMEEKYNLTSVLMAMGITDVFSSSANLSGISSAESLKISQAVHAAHAEINEAGREVVGSAEAGVDAASVSEEFRADHPFLFCIKHIATNAVLFFGRCVSP
notes: Antigen ovalbumin (OVA) used for immunization of mice
  protective humoral immune response after immunization: did not generate a protective humoral immune response
